Among the data in the RNAGym collection of RNA variant scans (doi:10.7554/elife.80360) are self-cleavage values, retold here.

The chains are these.
B1: HDV Ribozyme (parent)
chain: GGCCGGCAUGGUCCCAGCCUCCUCGCUGGCGCCGGCUGGGCAACAUUCCGAGGGGACCGUCCCCUCGGUAAUGGCGAAUGGGACCCA

This data set covers variants of B1. The experiment in a line: self-cleavage, relative activity (ratio to wild type); higher = more cleavage; co-transcriptional.
For A16U U37A, the self-cleavage is 0.0554.

As to G17U A70C, the self-cleavage is 0.246.

Turning to G17C G80C, the self-cleavage is 0.0906.

On to G17A C41G, for which the self-cleavage amounted to 0.0997.

In the case of G17C C62A, the self-cleavage stood at 0.252.

For the variant G17C C62G, the self-cleavage is 0.0723.

For the variant A16U G82A, the self-cleavage was found to be 0.745.

For the variant A16U G82U, the self-cleavage worked out at 1.06.

Consider A16U G82C, for which the self-cleavage worked out at 0.256.

For G17C G59U, the self-cleavage came out at 0.342.

As for G17A G81C, the self-cleavage is 0.204.

Regarding G17A G81U, the self-cleavage was 0.182.

Consider G17A C21A, for which the self-cleavage came out at 0.0297.

Turning to G17C G39A, the self-cleavage came to 0.113.

G17C G39C: the self-cleavage was determined as 0.0462.

A16U C63G: the self-cleavage was found to be 0.831.

A16U A43G: the self-cleavage stood at 0.453.

With A16U A43C, the self-cleavage was 0.32.

Turning to A16U A51G, the self-cleavage turned out to be 1.04.

With A16U C32G, the self-cleavage is 0.156.

Consider G17A G40A, for which the self-cleavage was 0.655.

For G17C G54C, the self-cleavage worked out at 0.447.

With A16U U79C, the self-cleavage came to 0.705.

As for G17A C18G, the self-cleavage was found to be 0.095.

With G17A C32A, the self-cleavage came out at 0.0852.

G17C G53A: the self-cleavage worked out at 0.281.

As to G17C G53U, the self-cleavage worked out at 0.298.

For G17C G53C, the self-cleavage turned out to be 0.178.

On to G17U C44G, for which the self-cleavage stood at 0.222.

Turning to G17U C44U, the self-cleavage was determined as 0.146.

Regarding G17U C44A, the self-cleavage stood at 0.323.

Regarding G17C U69G, the self-cleavage came out at 0.317.

Take G17C U69C: the self-cleavage amounted to 0.269.

Take G17C U69A: the self-cleavage stood at 0.453.

On to G17A A56C, for which the self-cleavage was 0.847.

For the variant G17A A56G, the self-cleavage was 0.59.

Regarding G17C C26G, the self-cleavage was found to be 0.0852.

For the variant A16U C19U, the self-cleavage worked out at 0.122.

As for A16U C19G, the self-cleavage was determined as 0.

Turning to G17A U69G, the self-cleavage amounted to 0.906.

Turning to G17A U69C, the self-cleavage was found to be 0.786.

For G17C G67C, the self-cleavage turned out to be 0.289.

With G17C U65C, the self-cleavage is 0.529.

Turning to G17A U72A, the self-cleavage turned out to be 0.219.

Consider A16U G40U, for which the self-cleavage was 0.964.

For G17A U23A, the self-cleavage stood at 0.686.

For G17C C36A, the self-cleavage stood at 0.0361.

Regarding G17C C36G, the self-cleavage is 0.122.

With G17C C36U, the self-cleavage was found to be 0.0339.

On to G17U C32U, for which the self-cleavage was determined as 0.125.

G17U A45G: the self-cleavage was determined as 0.525.

With G17U A45C, the self-cleavage came to 0.161.

G17U A45U: the self-cleavage amounted to 0.244.

Take A16U A78U: the self-cleavage came out at 0.332.

In the case of A16U G53A, the self-cleavage worked out at 1.01.

Consider G17C U23G, for which the self-cleavage is 0.123.

Regarding A16U A77C, the self-cleavage came out at 0.0692.

As to A16U G39C, the self-cleavage came out at 0.185.

Turning to G17C C49U, the self-cleavage worked out at 0.332.

On to G17C G55U, for which the self-cleavage was 0.208.

G17C G55C: the self-cleavage stood at 0.262.

On to G17C G55A, for which the self-cleavage is 0.402.

Consider G17A G34C, for which the self-cleavage amounted to 0.0594.

Take G17A G34A: the self-cleavage is 0.117.

As for G17C A42U, the self-cleavage worked out at 0.158.

Take G17C A42C: the self-cleavage was found to be 0.0723.

In the case of G17C A42G, the self-cleavage worked out at 0.

On to A16U G28U, for which the self-cleavage is 0.222.

Consider A16U G28C, for which the self-cleavage came out at 0.

With G17A A71C, the self-cleavage amounted to 0.151.

For G17A G38C, the self-cleavage is 0.0791.

In the case of G17C C30G, the self-cleavage was 0.684.

Consider G17C C30A, for which the self-cleavage worked out at 0.342.

G17C C30U: the self-cleavage came to 0.655.

A16U G74C: the self-cleavage is 0.175.

As for A16U G74A, the self-cleavage is 0.388.

For the variant G17A U27A, the self-cleavage worked out at 0.609.

As for G17A U27C, the self-cleavage came to 0.309.

For the variant G17A U27G, the self-cleavage amounted to 0.485.

Turning to A16U G68C, the self-cleavage was determined as 1.03.

A16U G68A: the self-cleavage was 1.09.

Turning to G17A G35A, the self-cleavage was 0.205.

For the variant G17U C33U, the self-cleavage came out at 0.326.

Regarding G17C U72A, the self-cleavage worked out at 0.

G17C U72C: the self-cleavage stood at 0.

As to G17C U72G, the self-cleavage was 0.161.

In the case of G17A A83G, the self-cleavage turned out to be 0.7.

G17A A83U: the self-cleavage stood at 0.565.

As for G17A C84G, the self-cleavage was determined as 0.623.

For the variant G17A C84A, the self-cleavage was found to be 0.807.

Take G17A C84U: the self-cleavage is 0.598.

For the variant G17A A78C, the self-cleavage was determined as 0.268.

As to A16U U47A, the self-cleavage amounted to 0.639.

Take A16U C33A: the self-cleavage is 0.0639.

As to G17A C30G, the self-cleavage was found to be 0.631.

As to A16U C30A, the self-cleavage amounted to 0.201.

A16U C75U: the self-cleavage came to 0.189.

On to A16U C75A, for which the self-cleavage turned out to be 0.111.

Consider G17C G74C, for which the self-cleavage turned out to be 0.

Regarding G17A G25C, the self-cleavage came to 0.158.

On to G17A C58U, for which the self-cleavage is 0.588.

On to G17C C33G, for which the self-cleavage worked out at 0.

In the case of G17C C33A, the self-cleavage is 0.0437.

Regarding A16U A56G, the self-cleavage turned out to be 0.831.

Turning to A16U A56C, the self-cleavage worked out at 0.906.

For A16U U60C, the self-cleavage amounted to 0.831.

Consider A16U U60A, for which the self-cleavage stood at 0.587.

For G17C G31A, the self-cleavage amounted to 0.0652.

As for G17C G31U, the self-cleavage stood at 0.0831.

With A16U G80A, the self-cleavage was 0.812.

Turning to G17A U79A, the self-cleavage turned out to be 0.627.

Consider G17A U79C, for which the self-cleavage was 0.514.

As for G17U C21U, the self-cleavage was 0.13.

In the case of G17C U20A, the self-cleavage came to 0.0573.

On to G17A C86G, for which the self-cleavage stood at 0.591.

Turning to G17U C24G, the self-cleavage turned out to be 0.128.

On to G17U C24U, for which the self-cleavage is 0.146.

In the case of G17U C24A, the self-cleavage is 0.116.

For A16U G59C, the self-cleavage was determined as 0.997.

Turning to A16U G59U, the self-cleavage turned out to be 0.966.

On to A16U C61U, for which the self-cleavage amounted to 1.04.

As to A16U C61G, the self-cleavage is 0.712.

Turning to G17A A51U, the self-cleavage turned out to be 0.884.

Regarding A16U C48G, the self-cleavage worked out at 1.2.

Turning to G17U A83U, the self-cleavage is 0.34.

Consider G17C A70G, for which the self-cleavage amounted to 0.346.

Consider A16U A42U, for which the self-cleavage turned out to be 0.465.

In the case of G17U A77C, the self-cleavage was found to be 0.166.

For the variant G17A C24A, the self-cleavage was 0.089.

For the variant G17A C24U, the self-cleavage came out at 0.26.

On to G17A G76A, for which the self-cleavage worked out at 0.787.

As for A16U C22A, the self-cleavage amounted to 0.604.

As for G17C C84A, the self-cleavage worked out at 0.231.

Regarding G17A U20A, the self-cleavage was determined as 0.253.

In the case of G17A G52A, the self-cleavage was 0.831.

Consider A16U C36G, for which the self-cleavage amounted to 0.0519.

Turning to A16U C36A, the self-cleavage amounted to 0.0475.

Turning to G17C C41U, the self-cleavage is 0.0449.

Take G17A G67U: the self-cleavage was found to be 0.776.

With G17U A71C, the self-cleavage was 0.383.

Take G17C A71C: the self-cleavage turned out to be 0.246.

For the variant G17A A77U, the self-cleavage is 0.138.

Turning to A16U G52A, the self-cleavage was determined as 0.7.

For the variant A16U G52U, the self-cleavage was determined as 0.863.

On to G17A G29A, for which the self-cleavage was determined as 0.128.

As for G17A C33A, the self-cleavage was 0.0875.

As to G17A C33G, the self-cleavage came to 0.0369.

Consider G17A C36U, for which the self-cleavage worked out at 0.272.

Regarding G17C U60A, the self-cleavage is 0.575.

In the case of G17U A51U, the self-cleavage was 0.491.

Consider A16U C84U, for which the self-cleavage stood at 0.678.

On to A16U C84G, for which the self-cleavage is 1.09.

As for G17C A56G, the self-cleavage amounted to 0.145.

As to A16U G76U, the self-cleavage was 1.05.

Regarding G17A G31C, the self-cleavage stood at 0.188.

For G17A G31U, the self-cleavage came to 0.102.

With A16U G31A, the self-cleavage came out at 0.409.

On to A16U G31U, for which the self-cleavage is 0.225.

As to A16U C64G, the self-cleavage stood at 0.782.

As for G17C C48A, the self-cleavage is 0.388.

On to G17C C48G, for which the self-cleavage was 0.252.

As for G17C G50C, the self-cleavage was determined as 0.324.

For G17C G28A, the self-cleavage was 0.0449.

For A16U U72G, the self-cleavage is 0.465.

Turning to G17A C61G, the self-cleavage was determined as 0.406.

Take G17A C61U: the self-cleavage worked out at 0.904.

As for G17C C32A, the self-cleavage came to 0.
